In a protein production outcome set (Wang et al. 2014):

experiment: label from the status in PepcDB records
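Also: failed if final PepcDB status was selected cloned or expressed and not failed if soluble or beyond.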

Sequence	protein production
GGERRELKSLEQVHFAMAFEAPNYRAPDVYAAQVYAMALGGGMSSRLFQKVREERGLCYSIFAQSGAYEDTGQITIYAGTSGEEVADLAGLTVDELKRATEDMSEAEVARARAQLKAGLLMGLESPSNRAERLARLLAIWGRVPGVDEAVEKIDAVTVGAVRDYAERMAQARSALALYGPAEAAPALAQIRERLAA	failed
GHMAKAYKQAGVDIEAGYQAVALMKEHVQKTMRPEVLGGIGGFGGLFDLSALGYRQPVLISGTDGVGTKLKLAFLLDRHDTIGIDCVAMCVNDIIVQGAEPLFFLDYIACGKAVPEKIAAIVKGVADGCVEAGCALIGGETAEMPGMYDEDEYDLAGFAVGVAEKERLITGETIQAGDALVGLPSSGLHSNGYSLVRRIVFEQAKLSLDEIYEPLDVPLGEELLKPTRIYAKLLRSVRERFTIKGMAHITGGGLIENIPRMLPPGIGARIQLGSWPILPIFDFLREKGSLEEEEMFSVFNMGIGLVLAVSPETAAPLVEWLSERGEPAYIIGEVAKGAGVSFAGGGRA	not failed
GKRSHSMKRNPNAPVTKAGWLFKQASSGVKQWNKRWFVLVDRCLFYYKDEKEESILGSIPLLSFRVAAVQPSDNISRKHTFKAEHAGVRTYFFSAESPEEQEAWIQAMGEAARVQ	not failed
GLTNFTRDAEVLYQCAWIHDVMGLETEAMPYYEQAIANGLEGESLCGAYIGLGSTYRCIGEYDKAITVLETGLQQFPGNDVMKVFLSLAKFNVNDHESAMKLLLETVVK	failed
GMTGFVINTRRAPFDDWRLREALLLAFNFEFINDTVTGGVMPRITSYFSGTDLAYRPGTASGREAELLAPFAADLPPGTLEGYALPQGDGTARNRTNLRRAAQFLEQAGFRIEQGQLLGPDGAPLALRFLLRQGDSDMQTVLEIYTRALERLGIAAQIEKVDNAQYTARVAELDFDLTPFRRDLSLSPGNEQRLYWGSHSAGQPGTRNLMGAASPAIDAMIDRMLAATTEDELTAATRALDRVLTAGRYVIPIWR	not failed
GNNVSDADIRAIKHSERRLRNHFLPQSLFSHCGFEQAFNYKYLRIMRIAVHPQIQQQGIGAQFIHYIELLAKEQGVDFIGASFGVNPELLSFWLNAGFSTARIGFTKDKASGEHSALLIKGL	failed
GNSKSRNDRTETVDKEVIKAPEFDADSAYQYIQVQADFGPRVPNTQAHKECGEYLAGQLEKFGAKVYNQYADLIAYDGTILKSRNIIGAYKPESKKRILLCAHWDSRPYADNDPDPKNHHTPILGVNDGASGVGVLLEIARQIQKEQPALGIDIVFFDSEDYGIPEFYDGKYKQDTWCLGSQYWARTPHVQNYNARYGILLDMVGGKDATFYYEGYSARTARSEMKKIWKKAHELGYGKYFVKEDGGETVDDHIYVNKLARIPCVDIINYDAGNPQSSFGSFWHTVNDTMENIDRNTLKAVGQTVMDVIYNEK	not failed
GPVPTPPDNIQVQENFNISRIYGKWYNLAIGSTCPWLKKIMDRMTVSTLVLGEGATEAEISMTSTRWRKGVCEETSGAYEKTDTD	failed
GQRQPSEQELLFRQQALLLEQQRIHQLRNYQASMEAAGIPVSFGGHRPLSRAQSSPASATFPVSVQEPPTKPRFTTGLVYDTLMLKHQCTCGSSSSHPEHAGRIQSIWSRLQETGLRGKCECIRGRKATLEELQTVHSEAHTLLYGTNPLNRQKLDSKKLLGSLASVFVRLPCGGVGVDSDTIWNEVHSAGAARLAVGCVVELVFKVATGELKNGFAVVRPPGHHAEESTPMGFCYFNSVAVAAKLLQQRLSVSKILIVDWDVHHGNGTQQAFYSDPSVLYMSLHRYDDGNFFPGSGAPDEVGTGPGVGFNVNMAFTGGLDPPMGDAEYLAAFRTVVMPIASEFAPDVVLVSSGFDAVEGHPTPLGGYNLSARCFGYLTKQLMGLAGGRIVLALEGGHDLTAICDASEACVSALLGNELDPLPEKVLQQRPNANAVRSMEKVMEIHSKYWRCLQRTTSTAGRSLIEAQTCENEEAETVTAMASLSVGVKPA	failed
GQRVLFGSGEAAQNLAAEISRLDAKNVMVVAGDFELPMARQVAADIDVKVWHSNVVMHVPIETAEEARSVAKENDIDVVVCVGGGSTTGLAKAIAMTTALPIIAVPTTYAGSEATNVWGLTEAARKTTGVDNKVLPVTVIYDSALTMSLP	not failed
GQTCARPMCIPPSYADLGKAARDIFNKGFGFGLVKLDVKTKSCSGVEFSTSGSSNTDTGKVTGTLETKYKWCEYGLTFTEKWNTDNTLGTEIAIEDQICQGLKLTFDTTFSPNTGKKSGKIKSSYKRECINLGCDVDFDFAGPAIHGSAVFGYEGWLAGYQMTFDSAKSKLTRNNFAVGYRTGDFQLHTNVNDGTEFGGSIYQKVCEDLDTSVNLAWTSGTNCTRFGIAAKYQLDPTASISAKVNNSSLIGVGYTQTLRPGVKLTLSALVDGKSINAGGHKVGLALELEA	failed
GSPLLAPAFEPSLGPPPEGAPPTIEAWFSFRSPYSWLFMPRIRHLAQAYGATLELRPILPMVMRGLAVPRIKTIYITLDCKREAERVGLPFGRIVDPVGAGAERALAVLHHAMALGLGEQFAELGLKAAFADGIALAEDEGLYGVARRAGLTDAQTAAALADDSWRQRAETNRAALLEAGLWGAPTFRITGHQAHWGQDRLYMLEEDLRAAMQGAAAPR	failed
GSSGSSGDGTCTGAMPDGALDTAVCADEVGSEEDLYDDLHSSSHHYSHPGGGGEQLAINELISDGSVVCAEALWDHVTMDDQELGFKAGDVIEVMDATNREWWWGRVADGEGWFPASFVRLRVNQDEPADDDAPLAGNSGAEDGGAEAQSSKDQMRTNVINEILSTERDYIKHLRDICEGYVRQCRKRADMFSEEQLRTIFGNIEDIYRCQKAFVKALEQRFNRERPHLSELGACFLEHQADFQIYSEYCNNHPNACVELSRLTKLSKYVYFFEACRLLQKMIDISLDGFLLTPVQKICKYPLQLAELLKYTHPQHRDFKDVEAALHAMKNVAQLINERKRRLENIDKIAQWQSSIEDWEGEDLLVRSSELIYSGELTRVTQPQAKSQQRMFFLFDHQLIYCKKDLLRRDVLYYKGRLDMDGLEVVDLEDGKDRDLHVSIKNAFRLHRGATGDSHLLCTRKPEQKQRWLKAFAREREQVQLD	not failed
GSSGSSGDKKAYFYHSSFQILNVEYTEALNSPATHEYRTLSERIEAMITDEFRGSSLKSEFIRTHVVKLRKEGTGVVADVVMKFRSSKRNNRKVMKTRIQSVLRRLSSSGNLEIAPSNEITSLTDQDT	not failed
GSSGSSGMSNTTWGLQRDITPRLGARLVQEGNQLHYLADRASITGKFSDAECPKLDVVFPHFISQIESMLTTGELNPRHAQCVTLYHNGFTCEADTLGSCGYVYIAVYPTQR	not failed
GVPPSQGDLEYQMSTTARAKRVREAMCPGVSGEGQLALLATQVEGQATNLQRLAEPSQLLKSAIVHLINYQDDAELVTRALPELTKLLNDEDPVVVTKAAMIVNQLSKKEASRRALMGSPQLVAAVVRTMQNTSDLDTARCTTSILHNLSHHREGLLAIFKSGGIPALVRMLSSPVESVLFYAITTLHNLLLYQEGAKMACAGRRAQKMVPLLNKNNPKFLAITTDCLQLLAYGNQESKLIILANGGPQALVQIMRNYSYEKLLWTTSRVLKVLSVCPSNKPAIVEAGGMQALGKHLTSNSPRLVQNCLWTLRNLSDVATKQEGLESVLKILVNQLSVDDVNVLTCATGTLSNLTCNNSKNKTLVTQNSGVEALIHAILRAGDKDDITEPAVCALRHLTSRHPEAEMAQNSVRLNYGIPAIVKLLNQPNQWPLVKATIGLIRNLALCPANHAPLQEAAVIPRLVQLLVKAHQDAQRHVAAGTQQPYTDGVRMEEIVEGCTGALHILARDPMNRMEIFRLNTIPLFVQLLYSSVENIQRVAAGVLCEL	failed
GYRALSFPDPLDSQPVQAIAFYPSTGSEHLSIIHGYRVEASEDAPIAMGRFPLLLLSHGNTGTPLALHDLATSLARQGFVVVAVVHPGDNDRDHSRLGSLSNLYGRPLQISEAISTALLDPVLAPYLNARQ	not failed
HAATAAEPPTAPTPPTQPAEGPGGADYRHASVHQWHFGEGAREYWVFTPEQPVPGNAPLVIFLHGWSVMQPDLYRAWIDHIVRRGMVVVYPRYQPDLKTPNAAFLDNAAGALGDALRRLQAGELGVRPRLNQVAYLGHSAGGLLAANLAAASERLK	failed
HFLLPFAEIPEQFPASKAVLMEHFYRRMRKRFGYLMTADGKPEGGQWNFDADNRNKLKSPDLLQLPTPLCFDNPVASIKARIERHRIPSIGQVGESLLWPINRAQALSLLAHFCQICLPNFGRFQDAMTAQHPHRWSLYHSRLSFALNSKLLSPREVIEATISAYRAAQGQISLAQVEGFVRQILGWREYVRGMYWSN	failed
HFPARVKVEPAVDTSRIKVFGPGIEGKDVFREATTDFTVDSRPLTQVGGDHIKAHIANPSGASTECFVTDNADGTYQVEYTPFEKGLHVVEVTYDDVPIPNSPFKVAVTEGCQPS	not failed
HFPINTLLLMRATTGVQLRLPERFGEFLDCLFRALWVDKRNLNDPATITQVLEQGGFDPQQILDLSNDEEVKAALKDKTEQALQKGVFGAPSMFVGDELFFGQDRLDFVREALNA	failed
HGTGKQTNALADYWTSEFVNSVRQGIPVPNNYTVINCDFDQYMWEEAAAGCLATQLNSFIQAKNIDDLILLTHSNGGNVVRWILSNPTWDSRYPAVINATSKVIALAPSSGGTPLADAVNQGNVFETTLGWLLGYGSNAVKQQQVGWMAHYNNTWLFGTAGRPRLGKPFEVVVGSDVDSAIWDSDSYCAGYQYQVALETTQNWLDSCSDGFLNCSSQKAAGTVWFTDKQKTRGQEPLSHQQSRRACFNLDTL	failed
HIDLFDLDVEEPNDRIFIKGEAEEWPAYRKVPEVRENCNACGVCKDVCQYSAIYVIDKAYPLPELCHSCGACIYLCPEKAMEEVDYQTGKIVRVKSDITLTYGEMRIGEASAVFLIKQVKELMGKNAIIDSPPGASCPMVESVSDADYVILVAEPTPFGLHDLKIAAEVVSDLGLKFGVVVNKHGLPFDGIERYCKEGGVEILGKIPFSKEIAEKYSRGELLHDMKDFFVQLYEG	failed
HLHLRVKLLDNTMEIFDIEPKCDGQVLLTQVWKRLNLVECDYFGMEFQNTQSYWIWLEPMKPIIRQIRRPKNVVLRLAVK	failed
HPKLVSSTPAEGSEGAAPAKIELHFSENLVTQFSGAKLVMTAMPGMEHSPMAVKAAVSGGGDPKTMVITPASPLTAGTYKVDWRAVSSDTHPITGSVTFK	not failed
HPLLAGIPFRQLARPLMQDLAYSVRGTVSIGLLDGPSVVYVETARSGDVGPHTPDIGMPIPVVRTAMGRAAASTLPEAEAERLDRQLEAADGAMWASHRDLYRDGLRQCAERQFCTCFGDYLPAIHAVAAPLFRQRDRSFAINCGIPAFRLQPGQLEDEIGPRVRALAESIRALGVDPE	failed
HQPNIIPYHKGFYRAFSKLHTTTFKYQAQSPQDIIDSLDDHHHLFLFVSEGLLKGYLYLEIDSQQSIAEIKYFSSHVDYRLKGIAFELLAYALQYAFDNFDIRKVYFKIRNKNNKLIERFNGLGFHINYEYIKFKFESRNVKDQTIPE	failed
HVETIKNTFLNPKSNKVLVVAHRGNWRSAPENSTAAIDSAIAMKVDIVEIDIQKTKDGQLILMHDNTLDRTTTGKGEIKNWTLADIKKLKLKDKDGKVTNYVVPTLEEALLTAKGKIMVNLDKAYDIFDDVYAILEKTETQNQVIMKGGQPIETVKREFGSYLDKVLYMPVIDLGNKEAEKIITDYLKELRPAAFEIIYSDPKNPLPPKIKQLLFKKSLIWYNTLWGSLAGNHDDNLALTDPEKSYGYLIEQLGARILQTDQPAYLLDYLRKKGWHN	not failed
IAALSRDITPQQDGSVIVDASITIRHLNRMMGWSLPLIGPRTLSGLIIEHLGYIPPPDSCLVIDHYHIEILRVSDNMIRGVKMIKTN	failed
IDIEAMLGSVFDAMEPELDFTGEARNMDEARGQVRSFRSLEVPRVLHASPRVLVQSLADGKSVRHVDRAHFTDDERVEIGKDLLRFMYHGYFVHRFFHADPHAGNVFAAPGGPATLIDWGMVGRLD	failed
